{"source": "paper PMC10055998", "key": {"[1]": {"target": "SV2C, the BoNT/A protein receptor, rat (rat (endogenous in primary rat spinal cord cells)) (UniProt Q9Z2I6)", "sequence (Q9Z2I6 whole entry)": "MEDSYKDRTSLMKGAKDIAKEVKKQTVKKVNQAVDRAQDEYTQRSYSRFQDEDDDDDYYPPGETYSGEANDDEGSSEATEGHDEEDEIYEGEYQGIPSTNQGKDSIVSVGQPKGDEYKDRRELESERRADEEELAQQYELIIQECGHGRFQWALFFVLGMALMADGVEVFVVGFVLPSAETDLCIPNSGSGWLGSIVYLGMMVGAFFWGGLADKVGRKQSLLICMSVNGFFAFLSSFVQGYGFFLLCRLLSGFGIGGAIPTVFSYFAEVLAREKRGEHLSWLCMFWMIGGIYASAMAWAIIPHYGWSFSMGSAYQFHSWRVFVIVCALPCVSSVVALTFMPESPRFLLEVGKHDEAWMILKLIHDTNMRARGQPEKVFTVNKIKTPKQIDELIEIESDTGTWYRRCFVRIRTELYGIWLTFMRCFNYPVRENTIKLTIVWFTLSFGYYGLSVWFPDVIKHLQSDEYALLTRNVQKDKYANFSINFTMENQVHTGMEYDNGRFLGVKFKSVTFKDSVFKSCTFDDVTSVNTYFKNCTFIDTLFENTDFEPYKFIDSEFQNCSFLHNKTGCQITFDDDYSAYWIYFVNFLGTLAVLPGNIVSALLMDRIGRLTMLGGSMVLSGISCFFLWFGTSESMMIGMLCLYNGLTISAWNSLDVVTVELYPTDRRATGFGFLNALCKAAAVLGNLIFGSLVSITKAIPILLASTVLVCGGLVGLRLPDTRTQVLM"}, "[2]": {"target": "SV2C, the BoNT/A protein receptor, human (human (endogenous in hiPSC-derived motor neurons)) (UniProt Q496J9)", "sequence (Q496J9 whole entry)": "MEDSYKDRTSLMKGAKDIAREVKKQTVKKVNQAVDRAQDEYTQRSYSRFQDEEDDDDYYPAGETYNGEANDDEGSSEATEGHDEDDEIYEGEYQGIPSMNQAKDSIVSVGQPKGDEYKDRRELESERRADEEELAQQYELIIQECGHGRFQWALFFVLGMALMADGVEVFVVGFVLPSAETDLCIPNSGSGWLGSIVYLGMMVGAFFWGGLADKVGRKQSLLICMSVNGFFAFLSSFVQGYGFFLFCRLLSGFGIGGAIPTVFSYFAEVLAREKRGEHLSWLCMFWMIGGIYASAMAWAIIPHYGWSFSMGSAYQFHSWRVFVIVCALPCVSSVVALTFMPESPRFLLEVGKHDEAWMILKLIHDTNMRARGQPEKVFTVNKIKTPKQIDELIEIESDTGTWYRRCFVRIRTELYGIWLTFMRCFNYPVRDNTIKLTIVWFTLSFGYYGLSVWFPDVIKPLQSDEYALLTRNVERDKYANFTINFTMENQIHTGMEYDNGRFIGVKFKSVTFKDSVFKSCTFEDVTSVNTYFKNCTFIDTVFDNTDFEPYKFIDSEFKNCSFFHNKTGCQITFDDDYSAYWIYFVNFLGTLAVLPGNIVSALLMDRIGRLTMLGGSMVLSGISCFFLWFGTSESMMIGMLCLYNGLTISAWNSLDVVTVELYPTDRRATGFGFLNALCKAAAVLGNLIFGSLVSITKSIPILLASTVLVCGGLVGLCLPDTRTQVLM"}, "[3]": {"target": "SV2C, the BoNT/A protein receptor, rat (rat (endogenous in primary rat spinal cord cells)) (UniProt Q9Z2I6)", "remark": "listed apart in the source"}}, "note": "Where two headings read alike, the source gives them in different places.", "data": [{"substance": "Botulinum neurotoxin subtype A1 (BoNT/A1), 150-kDa holotoxin (from UniProt P0DPI0) (natural protein)", "values": [{"measurement": "EC50 RSC (SNAP-25 cleavage in primary rat spinal cord cells, 48 h)", "setting": "[1]", "result": 1, "unit": "pg/Well"}, {"measurement": "EC50 MN (SNAP-25 cleavage in hiPSC derived motor neurons, 48 h)", "setting": "[2]", "result": 0.07, "unit": "pg/Well"}, {"measurement": "EC50 RSC (SNAP-25 cleavage in primary rat spinal cord cells, 48 h)", "setting": "[3]", "result": 1.1, "unit": "pg/Well"}]}]}
